The target in this experiment is T1, IL-1 receptor type I (Flag-IL-1RI) (human, UniProt P14778 18-569).
T1 construct: not shown: Flag tag from pCMV-1-Flag expression vector
T1 sequence (looked up): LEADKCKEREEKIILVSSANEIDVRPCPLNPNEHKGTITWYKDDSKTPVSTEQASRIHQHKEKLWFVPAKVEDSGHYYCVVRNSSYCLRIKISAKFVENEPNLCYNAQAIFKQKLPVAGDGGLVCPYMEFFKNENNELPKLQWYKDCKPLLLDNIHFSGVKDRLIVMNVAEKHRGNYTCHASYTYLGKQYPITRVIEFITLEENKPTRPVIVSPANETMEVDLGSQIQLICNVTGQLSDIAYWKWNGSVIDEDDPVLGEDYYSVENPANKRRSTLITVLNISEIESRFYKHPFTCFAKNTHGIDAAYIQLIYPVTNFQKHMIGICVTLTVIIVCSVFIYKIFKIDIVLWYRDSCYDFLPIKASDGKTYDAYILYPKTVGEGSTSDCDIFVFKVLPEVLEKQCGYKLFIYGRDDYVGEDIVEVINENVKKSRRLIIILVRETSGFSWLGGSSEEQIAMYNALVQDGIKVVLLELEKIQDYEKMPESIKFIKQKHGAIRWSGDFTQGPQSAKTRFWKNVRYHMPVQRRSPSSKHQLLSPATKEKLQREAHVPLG
In words: coimmunoprecipitation from transfected 293/293T cell lysates. As for the experimental part: The total amount of DNA was kept constant. 24-36 hours after transfection, cells were lysed in 0.5 ml buffer (1% NP40, 150 mM NaCl, 50 mM Tris, 1 mM EDTA and protease inhibitors cocktail). Cell lysates were adjusted to 0.7 M NaCl and the indicated antibodies were added for 1 to 4 hours. Immune complexes were precipitated by the addition of protein-G-Sepharose (Sigma). After extensive washing, the Sepharose heads were boiled in sample buffer and the eluted proteins fractionated by SDS-PAGE. Subsequent protein immunoblotting was performed as described (Chinnaiyan, A., et al., Cell 81:505-12 (1995)).

B1: IRAK-2 (97-590) (enzyme)
chain: PEIRCPIPAFPDSVKPEKPLAASVRKAEDEQEEGQPVRMATFPGPGSSPARAHQPAFLQPPEEDAPHSLRSDLPTSSDSKDFSTSIPKQEKLLSLAGDSLFWSEADVVQATDDFNQNRKISQGTFADVYRGHRHGKPFVFKKLRETACSSPGSIERFFQAELQICLRCCHPNVLPVLGFCAARQFHSFIYPYMANGSLQDRLQGQGGSEPLPWPQRVSICSGLLCAVEYLHGLEIIHSNVKSSNVLLDQNLTPKLAHPMAHLCPVNKRSKYTMMKTHLLRTSAAYLPEDFIRVGQLTKRVDIFSCGIVLAEVLTGIPAMDNNRSPVYLKDLLLSEIPSSTASLCSRKTGVENVMAKEICQKYLEKGAGRLPEDCAEALATAACLCLRRRNTSLQEVCGSVAAVEERLRGRETLLPWSGLSEGTGSSSNTPEETDDVDNSSLDASSSMSVAPWAGAATPLLPTENGEGRLRVIVGREADSSSEACVGLEPPQDVT
notes: Truncated IRAK-2 lacking the N-terminal domain (DD); also called IRAK-2 (97-590)-MyC; mutant version of IRAK-2 lacking the first 96 amino acid residues; not shown: C-terminal Myc(-His) tag from pCDNA3-MyC-His vector
Take B1: the binding result is on record as “no binding”.

Source of the values: patent US20020099177A1 (Human Genome Sciences, published 2002).
